One may read the Kd as the equilibrium constant for the complex coming apart.

Data on one molecule can be found in paper PMC2896269 (The Journal of neuroscience : the official journal of the …, 2010).

The target in the assay is HA-neuroligin-1(+B) (UniProt Q62765 46-843). As to the kind of experiment: immunostaining of cells or tissue.
Chain of HA-neuroligin-1(+B) (Q62765 46-843): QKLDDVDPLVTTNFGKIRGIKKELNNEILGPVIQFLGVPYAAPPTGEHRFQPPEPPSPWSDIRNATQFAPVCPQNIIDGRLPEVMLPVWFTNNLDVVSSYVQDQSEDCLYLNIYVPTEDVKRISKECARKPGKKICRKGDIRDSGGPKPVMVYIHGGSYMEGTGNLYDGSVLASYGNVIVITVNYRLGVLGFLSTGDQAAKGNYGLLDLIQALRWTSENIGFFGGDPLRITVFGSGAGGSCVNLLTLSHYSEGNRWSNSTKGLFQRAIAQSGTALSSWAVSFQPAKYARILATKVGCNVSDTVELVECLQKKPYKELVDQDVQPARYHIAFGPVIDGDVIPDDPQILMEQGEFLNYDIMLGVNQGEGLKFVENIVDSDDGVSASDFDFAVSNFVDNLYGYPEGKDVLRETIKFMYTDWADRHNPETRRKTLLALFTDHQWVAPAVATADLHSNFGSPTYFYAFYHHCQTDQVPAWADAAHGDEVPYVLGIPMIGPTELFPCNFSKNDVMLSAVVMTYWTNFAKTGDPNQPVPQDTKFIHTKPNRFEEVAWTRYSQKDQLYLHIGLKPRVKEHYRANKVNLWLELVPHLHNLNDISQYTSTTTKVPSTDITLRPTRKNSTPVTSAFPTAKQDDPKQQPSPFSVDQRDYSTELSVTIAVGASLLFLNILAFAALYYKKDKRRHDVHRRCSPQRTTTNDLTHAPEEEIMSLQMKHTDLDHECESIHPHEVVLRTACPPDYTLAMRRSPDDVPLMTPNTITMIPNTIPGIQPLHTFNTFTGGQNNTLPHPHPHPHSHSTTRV

B1: Nrx1β(+S4)-Fc (Fc fusion)
chain: not shown
B1 gave a Kd of 26.9 nM.
